Columns and labels:
[1] = molecular target: human BTN3A1 recombinant protein with his tag (h-BTN3A1-his) (human) (UniProt O00481); test: ELISA, plate coated with h-BTN3A1-his 1 ug/mL, B cell supernatant
[2] = molecular target: human BTN3A1 expressed on HEK293 cells (human) (UniProt O00481); test: flow cytometry, HEK293 cells transiently expressing human BTN3A1, B cell supernatant
[3] = molecular target: BTN3A protein on SKOV-3 cells; test: cell-based or functional assay

Sequence of human BTN3A1 expressed on HEK293 cells (human) (O00481 30-513): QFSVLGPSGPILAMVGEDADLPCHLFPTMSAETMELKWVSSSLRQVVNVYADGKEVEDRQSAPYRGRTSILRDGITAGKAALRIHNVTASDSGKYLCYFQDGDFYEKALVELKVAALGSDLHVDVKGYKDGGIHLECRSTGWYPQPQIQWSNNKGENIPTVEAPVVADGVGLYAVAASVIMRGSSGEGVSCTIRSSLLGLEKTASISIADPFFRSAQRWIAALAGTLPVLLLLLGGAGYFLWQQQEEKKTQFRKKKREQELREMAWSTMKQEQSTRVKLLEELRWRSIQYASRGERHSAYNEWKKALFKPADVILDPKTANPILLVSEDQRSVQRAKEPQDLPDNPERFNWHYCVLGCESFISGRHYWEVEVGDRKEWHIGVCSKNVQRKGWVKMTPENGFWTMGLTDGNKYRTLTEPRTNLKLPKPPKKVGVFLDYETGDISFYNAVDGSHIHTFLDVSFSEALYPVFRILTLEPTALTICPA
Sequence of human BTN3A1 recombinant protein with his tag (h-BTN3A1-his) (human) (O00481 30-254 limits assumed): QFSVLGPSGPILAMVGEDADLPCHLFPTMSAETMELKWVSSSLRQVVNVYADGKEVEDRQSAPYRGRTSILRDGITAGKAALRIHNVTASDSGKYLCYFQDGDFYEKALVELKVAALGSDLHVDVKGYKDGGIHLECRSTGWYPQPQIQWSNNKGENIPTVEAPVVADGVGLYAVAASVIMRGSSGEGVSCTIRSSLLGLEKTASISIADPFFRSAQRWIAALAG

ELISA (OD 450) [1] | MFI [2] | Percentage (%) [2] | EC50 of IFNγ secretion by Vγ9Vδ2 T cells co-cultured with SKOV-3 cells [3] | Maximum IFNγ (pg/mL), Vγ9Vδ2 T cells co-cultured with SKOV-3 cells [3] | Binder
2.1 OD450 | 190000 MFI | 98.3% | – | – | anti-BTN3A1 rabbit-derived monoclonal antibody r20A3 (antibody, V domains shown) VH: QSVEESGGRLVTPGTPLTLTCTASGFTINNYYMNWVRQAPGKGLEWIGIIYGSDNTYYASWAKGRFTISKTSTTVDLIMTSPTTEDTATYFCVRNLDYSSAYFHIWGPGTLVTVSS VL: QVLTQTPSPVSAAVGGTVSISCQASQSVYNNNRLAWYQQKPGQPPNLLIYEASKLASGVPSRFKGSGSGTQFTLIISEVQCEDAATYYCQGYYSGFIYPFGGGTEVVVK
– | – | – | 0.284 nM | 2470 pg/mL | 20A3-H2L2 (antibody, human IgG1, kappa) heavy: EVQLVESGGGLVQPGGSLRLSCAASGFTINNYYMNWVRQAPGKGLEWVSIIYGSDNTYYASWAKGRFTISKDNSKNTVYLQMNSLRAEDTAVYYCVRNLDYSSAYFHIWGQGTLVTVSSASTKGPSVFPLAPSSKSTSGGTAALGCLVKDYFPEPVTVSWNSGALTSGVHTFPAVLQSSGLYSLSSVVTVPSSSLGTQTYICNVNHKPSNTKVDKRVEPKSCDKTHTCPPCPAPEFEGGPSVFLFPPKPKDTLMISRTPEVTCVVVDVSHEDPEVKFNWYVDGVEVHNAKTKPREEQYNSTYRVVSVLTVLHQDWLNGKEYKCKVSNKALPASIEKTISKAKGQPREPQVYTLPPSREEMTKNQVSLTCLVKGFYPSDIAVEWESNGQPENNYKTTPPVLDSDGSFFLYSKLTVDKSRWQQGNVFSCSVMHEALHNHYTQKSLSLSPGK light: DIQLTQSPSSLSASVGDRVTITCQASQSVYNNNRLAWYQQKPGKPPKLLIYEASKLASGVPSRFSGSGSGTDFTLTISSLQPEDVATYYCQGYYSGFIYPFGGGTKVEIKRTVAAPSVFIFPPSDEQLKSGTASVVCLLNNFYPREAKVQWKVDNALQSGNSQESVTEQDSKDSTYSLSSTLTLSKADYEKHKVYACEVTHQGLSSPVTKSFNRGEC
1.84 OD450 | 444000 MFI | 99% | – | – | anti-BTN3A1 rabbit-derived monoclonal antibody r17G4 (antibody, V domains shown) VH: QSLEESGGRLVTPGTPLTLTCTASGFSLNDYYITWVRQAPGKGLEWIGVIYGSSNTVYASWAKGRFTISKTSTMVDLRITSPTTEDTATYFCARGYLASSADIWGPGTLVTVSL VL: QVLTQTPSPVSAAVGGTVTINCQSSQSVYNNNRLAWYQQKPGQPPKLLIYDASTLASGVPSRFKGSGSGTDFTLTISDLECADAATYYCQTYYSGYIWAFGGGTEVVVK

Reference: patent EP4755916A1
